Results from the supplement of paper PMC10567573.

B1: MATN2 (parent)
chain: FSLKTFKRKSEVERAVKRMRHLST
B2: PTPLAD1 (parent)
chain: YSFYMLTCIDMDWKVLTWLRYTLW

Variants of: B1
Assay: protein stability index of a GFP-peptide fusion (GPS, HEK-293T) (PSI 1-6); higher = more stable
Conditions: c terminus: a fixed tail appended
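Note: lentivirally expressed fusions sorted by FACS into six bins by GFP to DsRed ratio, PSI derived from sequencing read proportions per bin multiplied by bin number.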

Variant	protein stability index
L22S	1.92
L22T	3.17
L22V	2.58
L22M	2.57
L22Y	1.93
L22N	2.47
L22R	2.68
L22Q	2.62
S23N	2.53
S23R	2.35
S23E	2
S23W	1.72
S23V	1.28
S23Y	2.3
S23I	2.8
S23K	2.64
S23P	2.25
S23T	1.89
S23C	1.42

Variant	protein stability index
S23D	3.11
S23G	2.1
S23A	1.81
T24E	2.67
T24P	2.35
T24Q	1.55
T24V	1.62
T24D	2.44
T24I	2.08
T24A	2.72
T24L	2.4
T24H	2.57
T24Y	2.23
T24W	1.55
T24N	3
T24S	2.53
T24G	3.01
T24K	3.38

Variants of: B2
Assay: as above
Conditions: c terminus: a fixed tail appended

Variant	protein stability index
Y21Q	2.17
Y21R	2.05
Y21N	4.05
Y21C	4.75
Y21I	2.98
Y21L	3.2
Y21F	2.66
Y21S	3.16
Y21E	3.44
Y21G	3.32
R20I	1.69
R20H	4.19
R20F	1.28
R20N	4.06
R20Y	2.42
R20L	1.23
R20M	2.04
R20W	1.06
R20V	2.13
R20A	2.88
R20K	3.46
R20T	3.6
R20C	1.52
R20P	3.84
R20G	3

Variant	protein stability index
W18F	3.34
W18K	3.24
W18M	1.84
W18A	2.61
W18D	1.68
W18T	3.35
W18I	3.65
W18Q	2.11
W18H	4.4
W18V	2.83
L16V	1.5
L16P	2.32
L16W	3.38
L16R	2.13
L16F	3.23
L16N	4.69
L16I	1.75
L16E	2.06
L16D	3.41
L16Y	1.59
L16Q	2.4
L16A	3.49
F3Y	3.36
F3C	2.18
F3D	2

Variant	protein stability index
F3P	2.51
F3A	2.37
F3S	2.61
F3G	2.24
F3E	2.31
F3L	1.03
F3T	1.68
F3W	2.37
F3K	1.69
F3Q	3.31
F3N	1.46
F3M	3.14
F3I	3.74
F3H	1.93
S2K	5.08
S2C	1.93
S2A	2.3
S2H	2.1
S2P	2.62
S2Q	1.97
S2Y	2.99
S2W	2.13
S2V	1.58
S2M	2.26
S2R	2.84

Variant	protein stability index
S2T	1.56
S2I	2.41
S2D	1.35
K14H	2.97
K14P	3.03
K14N	3.02
K14T	3.16
K14Q	2.03
K14F	1.85
K14Y	2.61
K14W	2.45
K14I	2.92
K14D	2.16
K14A	2.96
K14L	3.3
K14M	1.28
K14R	2.34
T17R	3.47
T17Y	1.8
T17W	2.66
T17Q	2.82
T17C	1.67
T17D	2.45
T17H	2.63
T17V	2.23

Variant	protein stability index
T17I	2.68
T17F	3.31
T17E	2.15
Y1C	2.62
Y1V	4.18
Y1R	1.4
Y1M	3.57
Y1T	2.2
Y1W	3.32
Y1A	2.82
Y1Q	3.61
Y1N	2.57
Y1L	1.47
Y1I	3.26
Y1H	2.28
Y1P	1.7
Y1D	1.5
Y1S	2.07
Y1K	2.1
D12W	1.82
D12E	2.68
D12I	1.82
D12N	2.65
D12L	2.09
D12P	1.94

Variant	protein stability index
D12F	2.23
D12Y	1.95
D12M	1.51
D12K	3.14
D12T	1.91
D12C	1.65
D12H	1.75
D12R	2.18
D12G	2.15
D12A	1.63
D12V	1.79
L6K	1.28
L6T	2.85
L6Q	1.31
L6Y	3.68
L6H	3.22
L6P	2.45
L6N	2.48
L6F	2.33
L6A	2.21
L6D	2.56
M5G	2.15
M5H	2.54
M5V	2.62
M5P	2.17

Variant	protein stability index
M5D	2.49
M5N	2.21
M5F	3.81
M5S	1.4
M5I	3.07
M5K	2.41
M5Q	2.64
M5Y	3.07
M5R	2.7
D10R	3.09
D10I	2.96
D10A	3.85
D10E	2.65
D10F	3.86
D10N	2.6
D10Q	3.51
D10P	1.95
D10V	3.62
D10L	1.38
D10T	2.76
D10G	4.97
V15T	2.91
V15N	2.59
V15Y	3.09
V15M	1.03

Variant	protein stability index
V15R	1.61
V15C	3.85
V15I	4.29
V15W	2.22
V15K	3.92
V15L	1.89
V15Q	2.69
V15E	1.86
W13F	2.73
W13H	2.36
W13G	3.3
W13L	2.72
W13N	4.03
W13Y	4.08
W13M	1.66
W13I	3.42
W13D	1.74
W13K	2.71
W13A	2.71
W13R	2.4
W13E	2.56
W13V	3.87
W13P	3.04
L19A	2.9
L19Y	2.91

Variant	protein stability index
L19N	3.55
L19H	2.65
L19I	2.06
L19M	1.93
L19P	3.35
L19D	4.18
L19F	3.32
L19E	2.83
L19Q	3.25
L19W	2.31
L19S	1.22
L19K	2.22
L19R	2.4
T7S	2.16
T7V	1.27
T7P	2.94
T7D	2.73
T7G	1.4
T7R	2.4
T7F	3.29
T7M	2.02
T7I	2.86
T7N	2.85
T7E	3.27
T7Y	3.62

Variant	protein stability index
T7A	2.65
T7Q	3.88
T7H	3.17
T7K	2.49
T7L	2.43
M11P	2.49
M11H	1.6
M11L	3.18
M11N	1.86
M11K	3.05
M11D	1.56
M11A	3.31
M11Y	3.68
M11E	2.15
M11V	2.87
M11W	2.13
M11F	2.15
M11I	2.67
M11T	1.21
M11R	2.86
M11C	3.43
C8N	2.97
C8D	2
C8E	2.25
C8H	2.1

Variant	protein stability index
C8L	2.85
C8W	2.54
C8A	2.9
C8K	3.09
C8M	1.73
C8R	1.42
C8I	3.23
C8Q	3.01
C8S	2.62
C8G	3.31
C8F	2.48
C8T	2.51
C8P	1.7
I9A	2.07
I9Q	2.85
I9R	2.45
I9G	2.4
I9F	2.17
I9T	1.25
I9P	2.05
I9H	1.65
I9N	2.78
I9K	1.66
I9C	1.58
I9W	1.96

Variant	protein stability index
I9M	2.6
I9Y	1.74
I9D	2.78
Y4W	2.12
Y4K	2.05
Y4T	1.86
Y4R	2.28
Y4H	3.11
Y4I	3.63
Y4L	3.13
Y4G	2.99
Y4S	1.77
Y4D	1.99
Y4M	2.53
Y4A	2.33
Y4N	3.92
Y4Q	1.98
Y4V	2.36
Y4E	1.77
Y4C	4.29
Y4P	2.72
Y4F	2.53
